Substitutions are numbered along the chain they refer to. Values belong to the binder of their own block, whether it stands above or below them.
Tests used:
FcRn-GFP = assay: cell-based or functional assay
mouse FcRn [1] = biological target: T1, mouse FcRn (mouse, UniProt Q61559 22-297; P01887 21-119, limits assumed); assay: SPR, pH 7.4
T1 sequence (looked up) 1: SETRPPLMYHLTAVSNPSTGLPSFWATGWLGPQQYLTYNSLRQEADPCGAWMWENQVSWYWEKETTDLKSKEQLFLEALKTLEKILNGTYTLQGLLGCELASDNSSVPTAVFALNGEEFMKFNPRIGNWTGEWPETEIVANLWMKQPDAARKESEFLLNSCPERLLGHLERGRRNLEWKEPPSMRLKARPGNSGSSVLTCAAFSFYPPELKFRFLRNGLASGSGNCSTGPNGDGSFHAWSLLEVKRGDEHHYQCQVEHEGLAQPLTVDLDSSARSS
T1 sequence (looked up) 2: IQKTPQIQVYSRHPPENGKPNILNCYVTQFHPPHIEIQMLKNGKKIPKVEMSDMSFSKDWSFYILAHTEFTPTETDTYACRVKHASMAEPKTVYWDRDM

cynomolgus monkey FcRn [2] = biological target: T2, cynomolgus monkey FcRn (cynomolgus monkey, UniProt Q8SPV9 24-297; Q8SPW0 21-119, limits assumed); assay: SPR, pH 7.4
T2 construct: also called cynoFcRn

[3] = biological target: T3, Recombinant in-house Human FcRn protein (human, UniProt P55899 24-297; P61769 21-119, limits assumed); assay: SPR, pH 7.4
T3 construct: also called huFCRN; HuFcRn

rat FcRn [4] = biological target: T4, rat FcRn (rat, UniProt P13599 23-298; P07151 21-119, limits assumed); assay: SPR, pH 7.4
T4 sequence (looked up) 1: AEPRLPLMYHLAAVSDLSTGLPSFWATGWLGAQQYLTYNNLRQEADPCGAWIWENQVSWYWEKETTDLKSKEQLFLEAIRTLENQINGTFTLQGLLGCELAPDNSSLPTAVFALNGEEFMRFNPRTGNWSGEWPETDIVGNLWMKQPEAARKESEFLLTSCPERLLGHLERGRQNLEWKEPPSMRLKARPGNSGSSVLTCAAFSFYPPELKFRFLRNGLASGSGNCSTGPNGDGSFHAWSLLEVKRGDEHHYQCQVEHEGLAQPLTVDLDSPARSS
T4 sequence (looked up) 2: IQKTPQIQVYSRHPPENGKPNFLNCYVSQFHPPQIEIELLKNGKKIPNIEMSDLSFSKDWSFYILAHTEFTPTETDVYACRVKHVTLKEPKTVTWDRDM

mouse FcRn [5] = biological target: T1, mouse FcRn; assay: SPR, pH 6
cynomolgus monkey FcRn [6] = biological target: T2, cynomolgus monkey FcRn; assay: SPR, pH 6
[7] = biological target: T3, Recombinant in-house Human FcRn protein; assay: SPR, pH 6
rat FcRn [8] = biological target: T4, rat FcRn; assay: SPR, pH 6
[9] = biological target: T3, Recombinant in-house Human FcRn protein; assay: competitive binding ELISA, pH 6.0; competitor Efgartigimod (Fc Fragment 1)
[10] = biological target: T3, Recombinant in-house Human FcRn protein; assay: competitive binding ELISA, pH 6.0, in triplicate; competitor IgG

Average (n = 3) Residual FcRn (FcRn-GFP): 44
B3: Fc Fusion Molecule 46 (Fc fusion)
chain 1: DKTHTCPPCPAPELLGGPSVFLFPPKPKDTLYITREPEVTCVVVDVSHEDPEVKFNWYVDGVEVHNAKTKPREEQYNSTYRVVSVLTVLHQDWLNGKEYKCKVSNKALPAPIEKTISKAKGQPREPQVCTLPPSRDELTKNQVSLSCAVKGFYPSDIAVEWESNGQPENNYKTTPPVLDSDGSFFLVSKLTVDKSRWQQGNVFSCSVMHEALKYHYTQKSLSLSPGGGGGSGGGGSGGGGSGGGGSGGGGSGGGGSGGGGSGGGGSEVQLLESGGGLVQPGGSLRLSCAASGFTFRSAGMSWVRQAPGKGPEWVSSISGSGSDTLYADSVKGRFTISRDNSKNTLYLQMNSLRPEDTAVYYCTIGGSLSRSSQGTLVTVSS
chain 2: DKTHTCPPCPAPELLGGPSVFLFPPKPKDTLYITREPEVTCVVVDVSHEDPEVKFNWYVDGVEVHNAKTKPREEQYNSTYRVVSVLTVLHQDWLNGKEYKCKVSNKALPAPIEKTISKAKGQPREPQVYTLPPCRDELTKNQVSLWCLVKGFYPSDIAVEWESNGQPENNYKTTPPVLDSDGSFFLYSKLTVDKSRWQQGNVFSCSVMHEALKYHYTQKSLSLSPG

Average (n = 3) Residual FcRn (FcRn-GFP): 48
B4: Fc Fusion Molecule 42 (Fc fusion)
chain 1: B3 chain 1 with A298F
chain 2: B3 chain 2

Average (n = 3) Residual FcRn (FcRn-GFP): 29
B5: Fc Fusion Molecule 45 (Fc fusion)
chain 1: DKTHTCPPCPAPELLGGPSVFLFPPKPKDTLYITREPEVTCVVVDVSHEDPEVKFNWYVDGVEVHNAKTKPREEQYNSTYRVVSVLTVLHQDWLNGKEYKCKVSNKALPAPIEKTISKAKGQPREPQVCTLPPSRDELTKNQVSLSCAVKGFYPSDIAVEWESNGQPENNYKTTPPVLDSDGSFFLVSKLTVDKSRWQQGNVFSCSVMHEALKYHYTQKSLSLSPGGGGGSGGGGSGGGGSGGGGSGGGGSGGGGSGGGGSEVQLLESGGGLVQPGGSLRLSCAASGFTFRSAGMSWVRQAPGKGPEWVSSISGSGSDTLYADSVKGRFTISRDNSKNTLYLQMNSLRPEDTAVYYCTIGGSLSRSSQGTLVTVSS
chain 2: B3 chain 2

Average (n = 3) Residual FcRn (FcRn-GFP): 12
B6: Fc Fusion Molecule 43 (Fc fusion)
chain 1: DKTHTCPPCPAPELLGGPSVFLFPPKPKDTLYITREPEVTCVVVDVSHEDPEVKFNWYVDGVEVHNAKTKPREEQYNSTYRVVSVLTVLHQDWLNGKEYKCKVSNKALPAPIEKTISKAKGQPREPQVCTLPPSRDELTKNQVSLSCAVKGFYPSDIAVEWESNGQPENNYKTTPPVLDSDGSFFLVSKLTVDKSRWQQGNVFSCSVMHEALKYHYTQKSLSLSPGGGGGSGGGGSGGGGSEVQLLESGGGLVQPGGSLRLSCAASGFTFRSAGMSWVRQAPGKGPEWVSSISGSGSDTLYADSVKGRFTISRDNSKNTLYLQMNSLRPEDTAVYYCTIGGSLSRSSQGTLVTVSS
chain 2: B3 chain 2

Average (n = 3) Residual FcRn (FcRn-GFP): 21
B7: Fc Fusion Molecule 44 (Fc fusion)
chain 1: DKTHTCPPCPAPELLGGPSVFLFPPKPKDTLYITREPEVTCVVVDVSHEDPEVKFNWYVDGVEVHNAKTKPREEQYNSTYRVVSVLTVLHQDWLNGKEYKCKVSNKALPAPIEKTISKAKGQPREPQVCTLPPSRDELTKNQVSLSCAVKGFYPSDIAVEWESNGQPENNYKTTPPVLDSDGSFFLVSKLTVDKSRWQQGNVFSCSVMHEALKYHYTQKSLSLSPGGGGGSGGGGSGGGGSGGGGSGGGGSGGGGSEVQLLESGGGLVQPGGSLRLSCAASGFTFRSAGMSWVRQAPGKGPEWVSSISGSGSDTLYADSVKGRFTISRDNSKNTLYLQMNSLRPEDTAVYYCTIGGSLSRSSQGTLVTVSS
chain 2: B3 chain 2

Second part, the binder before the results:

B1: Fc Fusion Molecule 22 (Fc fusion)
chain 1: B6 chain 1 with A273F
chain 2: B3 chain 2
Average (n = 3) Residual FcRn (FcRn-GFP): 20

B2: Fc Fusion Molecule 41 (Fc fusion)
chain 1: B7 chain 1 with A288F
chain 2: B3 chain 2
Average (n = 3) Residual FcRn (FcRn-GFP): 31

B8: Fc Fragment 14 (other)
chain: B3 chain 2 with C134S, W146T, M208L, K213R, Y214F
notes: Human IgG1 Fc fragment; substitutions already in the entry
Kd (mouse FcRn [1]): 2.34 nM | Kd (cynomolgus monkey FcRn [2]): 1600 nM | Kd [3]: 249 nM | Kd (rat FcRn [4]): 12.4 nM | Kd (mouse FcRn [5]): 0.288 nM | Kd (cynomolgus monkey FcRn [6]): 36.1 nM | Kd [7]: 8.26 nM | Kd (rat FcRn [8]): 3.94 nM | IC50 [9]: 3.85 nM | IC50 [10]: 2.09 nM

B9: Fc Fragment 13 (other)
chain: B3 chain 2 with C134S, W146T, K213R, Y214F
notes: as for B8
Kd (mouse FcRn [1]): 2.73 nM | Kd (cynomolgus monkey FcRn [2]): 1370 nM | Kd [3]: 248 nM | Kd (rat FcRn [4]): 16.2 nM | Kd (mouse FcRn [5]): 0.2 nM | Kd (cynomolgus monkey FcRn [6]): 41.7 nM | Kd [7]: 9.53 nM | Kd (rat FcRn [8]): 4.33 nM | IC50 [9]: 4.71 nM | IC50 [10]: 1.13 nM
